In patent US20120058906A1 one finds ECL signal data, which are given here for two substances.

Test [1] addresses rHuman P-Cadherin/Fc Chimera, CF (R&D Systems Cat#861-PC) (human) (UniProt P22223). The test is described as follows: MSD ECL multi-spot plate; Fab 4.375 nM; blank spot 305.
For test [2], the target named is rHuman HGF R/c-MET/Fc Chimera, CF (R&D Systems Cat#358-MT/CF) (human) (UniProt P08581). The test can be described thus: MSD ECL multi-spot assay, antigen spotted on plate, Fab 0.28 uM; blank spot 1773.
Test [3] has as its target rHuman CD44/Fc Chimera, CF (R&D Systems Cat#3660-CD) (human) (UniProt P16070). Described as above.
Test [4] deals with rHuman IGF-1 sR (IGF-1 sR), CF (R&D Systems Cat#391-GR) (human) (UniProt P08069). The test is described as above.
Test [5] has as its target rHuman Notch-1/Fc Chimera, CF (R&D Systems Cat#3647-TK) (human) (UniProt P46531). The test is described as above.
In test [6] the target is rHuman ErbB2/Fc Chimera, CF (R&D Systems Cat#1129-ER) (human) (UniProt P04626). The description is as above.
The target in test [7] is rHuman P-Cadherin/Fc Chimera, CF (R&D Systems Cat#861-PC) (human) (UniProt P22223). The test can be described thus: MSD ECL multi-spot plate; Fab 17.5 nM; blank spot 304.
For test [8] the target is unchanged. The test is described as follows: MSD ECL multi-spot plate; Fab 70 nM; blank spot 635.
Test [9] shares this target. The test is described as follows: MSD ECL multi-spot plate; Fab 280 nM; blank spot 1691.
The target in test [10] is rHuman EGF R/Fc Chimera, CF (R&D Systems Cat#344-ER) (human) (UniProt P00533). The test can be described thus: MSD ECL multi-spot plate; Fab 230 nM; blank spot 1656.
Test [11] deals with rHuman HGF R/c-MET/Fc Chimera, CF (R&D Systems Cat#358-MT/CF) (human) (UniProt P08581). The description is as above.
In test [12] the target is rHuman CD44/Fc Chimera, CF (R&D Systems Cat#3660-CD) (human) (UniProt P16070). The description is as above.
Test [13] has as its target rHuman IGF-1 sR (IGF-1 sR), CF (R&D Systems Cat#391-GR) (human) (UniProt P08069). Described as above.
Test [14] deals with rHuman Erythropoietin R/Fc Chimera, CF (R&D Systems Cat#963-ER) (human) (UniProt P19235). The test is described as above.
rHuman Erythropoietin R/Fc Chimera, CF (R&D Systems Cat#963-ER) (human), sequence (P19235 25-250, change not shown): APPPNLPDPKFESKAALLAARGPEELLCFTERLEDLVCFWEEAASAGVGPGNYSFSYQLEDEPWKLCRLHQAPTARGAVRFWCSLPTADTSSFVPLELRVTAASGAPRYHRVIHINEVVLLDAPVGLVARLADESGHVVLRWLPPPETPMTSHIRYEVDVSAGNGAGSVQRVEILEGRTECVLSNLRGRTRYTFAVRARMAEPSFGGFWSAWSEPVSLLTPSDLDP
Test [15] has as its target rHuman ErbB2/Fc Chimera, CF (R&D Systems Cat#1129-ER) (human) (UniProt P04626). The description is as above.
Test [16] concerns the target rHuman EGF R/Fc Chimera, CF (R&D Systems Cat#344-ER) (human) (UniProt P00533). The test can be described thus: MSD ECL multi-spot plate; Fab 57.5 nM; blank spot 954.
In test [17] the target is rHuman HGF R/c-MET/Fc Chimera, CF (R&D Systems Cat#358-MT/CF) (human) (UniProt P08581). Described as above.
The target of test [18] is rHuman CD44/Fc Chimera, CF (R&D Systems Cat#3660-CD) (human) (UniProt P16070). The description is as above.
Test [19] addresses rHuman IGF-1 sR (IGF-1 sR), CF (R&D Systems Cat#391-GR) (human) (UniProt P08069). The description is as above.
The target in test [20] is rHuman Erythropoietin R/Fc Chimera, CF (R&D Systems Cat#963-ER) (human) (UniProt P19235). The description is as above.
Test [21] concerns the target rHuman ErbB2/Fc Chimera, CF (R&D Systems Cat#1129-ER) (human) (UniProt P04626). The description is as above.
The target of test [22] is rHuman EGF R/Fc Chimera, CF (R&D Systems Cat#344-ER) (human) (UniProt P00533). The test can be described thus: MSD ECL multi-spot plate; Fab 920 nM; blank spot 4082.
Test [23] concerns the target rHuman HGF R/c-MET/Fc Chimera, CF (R&D Systems Cat#358-MT/CF) (human) (UniProt P08581). The test is described as above.
Test [24] deals with rHuman CD44/Fc Chimera, CF (R&D Systems Cat#3660-CD) (human) (UniProt P16070). Described as above.
Test [25] has as its target rHuman IGF-1 sR (IGF-1 sR), CF (R&D Systems Cat#391-GR) (human) (UniProt P08069). The test is described as above.
For test [26], the target named is rHuman Erythropoietin R/Fc Chimera, CF (R&D Systems Cat#963-ER) (human) (UniProt P19235). The description is as above.
Test [27] deals with rHuman ErbB2/Fc Chimera, CF (R&D Systems Cat#1129-ER) (human) (UniProt P04626). Described as above.
The target in test [28] is rHuman EGF R/Fc Chimera, CF (R&D Systems Cat#344-ER) (human) (UniProt P00533). The test is described as follows: MSD ECL multi-spot assay, antigen spotted on plate, Fab 0.93 uM; blank spot 4760.
For test [29] the target is unchanged. The test is described as follows: MSD ECL multi-spot plate; Fab 14.375 nM; blank spot 738.
The target of test [30] is rHuman HGF R/c-MET/Fc Chimera, CF (R&D Systems Cat#358-MT/CF) (human) (UniProt P08581). The description is as above.
Test [31] concerns the target rHuman CD44/Fc Chimera, CF (R&D Systems Cat#3660-CD) (human) (UniProt P16070). The description is as above.
The target in test [32] is rHuman IGF-1 sR (IGF-1 sR), CF (R&D Systems Cat#391-GR) (human) (UniProt P08069). Described as above.
The target in test [33] is rHuman Erythropoietin R/Fc Chimera, CF (R&D Systems Cat#963-ER) (human) (UniProt P19235). The description is as above.
The target in test [34] is rHuman ErbB2/Fc Chimera, CF (R&D Systems Cat#1129-ER) (human) (UniProt P04626). The description is as above.

As to “Fab VH1-46_IGHD2-15*01_IGHJ2*01 & L12_IGKJ1*01”, the ECL signal is 469 ECL signal in [1]; 5180 in [2]; 4560 in test [3]; 4640 in test [4]; 5280 in [5]; 4310 in test [6]. The values for the ECL signal in [7], in test [8] and in [9] were 949 ECL signal, 1820 ECL signal and 5400 ECL signal, respectively.
Consider “Fab VH1-46_IGHD3-10*01_IGHJ4*01 & L12_IGKJ1*01”, for which the ECL signal stood at 5720 ECL signal in [10]; 3930 ECL signal in test [11]; 3820 ECL signal in test [12]; 4760 ECL signal in [13]; 6950 ECL signal in test [14]; 4080 ECL signal in test [15]. Further, the ECL signal was found to be 3860 ECL signal in test [16]; 2300 ECL signal in test [17]; 2310 ECL signal in test [18]; 2830 ECL signal in test [19]; 4040 ECL signal in [20]; 2450 ECL signal in test [21]. The ECL signal in test [22] worked out at 13400 ECL signal; in [23] it was 10700 ECL signal; in [24] it was 9700 ECL signal; in [25], 10200 ECL signal; in test [26] it was 16400 ECL signal; in test [27], 10900 ECL signal. The ECL signal turned out to be 15600 in test [28]; 2670 ECL signal in [29]; 1600 ECL signal in test [30]; 1490 ECL signal in test [31]; 1750 ECL signal in test [32]; 2720 ECL signal in [33]. Further, in test [34], the ECL signal stood at 1590 ECL signal.
